Reference: article PMC7049730 (Nucleic Acids Research, 2019)
Substitutions are numbered along the chain they refer to. Names and notes keep the numbering of the source.

Experiments:
[1] = target: T1, Pf MR^NBD complex (Mre11-Rad50^NBD) (Pyrococcus furiosus, UniProt P58301, DEL196-708); assay: Mre11 exonuclease assay, 2-aminopurine fluorescence (Exo2 dsDNA); format: biochemical; details: 1 mM AMP-PNP, 1 mM MnCl2, 5 mM MgCl2, 60 C, pH 7.5; binds Rad50 and stabilizes the closed state that occludes the Mre11 active site
T1 construct: ~180 kDa complex; with DNA double-strand break repair protein Mre11

[2] = target: P. furiosus Rad50 nucleotide binding domain L51C/L828F, LRET-labelled (UniProt P58301); assay: LRET time course; details: Rad50 NBD in MRNBD complex with Mre11; after addition of saturating ATP; parent: est. 1.0; read off a plot
[3] = target: Mre11^HLH-Rad50^NBD, wild type (Pyrococcus furiosus) (UniProt P58301); assay: SEC; Superdex 200 Increase 10/300 GL, 4 °C, with 5 mM ATP; fraction dimer = area of the dimer peak over the areas of monomer and dimer peaks; monomer to dimer
[4] = target: P. furiosus Rad50 nucleotide binding domain L51C/L828A, LRET-labelled (UniProt P58301); assay: LRET time course; details: Rad50 NBD in MRNBD complex with Mre11; after addition of saturating ATP; parent: est. 1.0; read off a plot
[5] = target: P. furiosus Rad50 nucleotide binding domain L51C/D829N, LRET-labelled (UniProt P58301); assay: LRET time course; details: Rad50 NBD in MRNBD complex with Mre11; after addition of saturating ATP; parent: est. 1.0; read off a plot
[6] = target: the molecule itself; assay: FRET or BRET; as a1 but with 2 mM ATP (ATP-bound); MR^NBD complexes with Mre11; 50 mM Tris, 200 mM NaCl, 5 mM MgCl2, pH 7.5, 50 °C; percent of LRET-visible molecules only
[7] = target: the molecule itself; assay: FRET or BRET; LRET time course: increase of donor-sensitized Bodipy FL emission after addition of 2 mM ATP to MR complexes; kex = k_assoc + k_dissoc of open to closed; 50 mM Tris, 200 mM NaCl, 5 mM MgCl2, pH 7.5, 50 °C
[8] = target: the molecule itself; assay: FRET or BRET; LRET between Tb3+ chelate (donor) and Bodipy FL (acceptor) on L51C of the two Rad50^NBD in MR^NBD complexes with Mre11; donor-sensitized acceptor lifetimes, three-exponential fit; no ATP (apo); 0.5 uM wild type, L828A, D829A or 2.0 uM L828F, D829N complexes; 50 mM Tris, 200 mM NaCl, 5 mM MgCl2, pH 7.5, 50 °C; percent of LRET-visible molecules only

Molecule: Nc1ncnc2c1ncn2[C@@H]1O[C@H](COP(=O)(O)OP(=O)(O)NP(=O)(O)O)[C@@H](O)[C@H]1O [AMP-PNP]
- Mre11 exonuclease assay, 2-aminopurine fluorescence (Exo2 dsDNA) [1]: AMP-PNP, which stabilizes the complex into the closed state and occludes the Mre11 active

Molecule: P. furiosus Rad50 nucleotide binding domain L51C, LRET-labelled (from UniProt P58301) L828F
- ratio to parent [2]: 4.2

Molecule: Mre11^HLH-Rad50^NBD, wild type (from UniProt P58301 1-195; P58301 709-882) (complex)
- percent converted to a stable dimer upon addition of ATP [3]: 30%
- stoichiometry N [3]: 2

Molecule: P. furiosus Rad50 nucleotide binding domain L51C, LRET-labelled (from UniProt P58301) L828A
- ratio to parent [4]: 4.4

Molecule: P. furiosus Rad50 nucleotide binding domain L51C, LRET-labelled (from UniProt P58301) D829N
- ratio to parent [5]: 8.7

B1: P. furiosus Rad50 nucleotide binding domain L51C/L828F, LRET-labelled (domain or fragment, Pyrococcus furiosus)
chain: MKLERVTVKNFRSHSDTVVEFKEGINLIIGQNGSGKSSLLDAILVGLYWPCRIKDIKKDEFTKVGARDTYIDLIFEKDGTKYRITRRFLKGYSSGEIHAMKRLVGNEWKHVTEPSSKAISAFMEKLIPYNIFLNAIYIRQGQIDAILESDEAREKVVREVLNLDKFETAYKKLSELKKTINNRIKEYRDILARTEGGAGGAGGRERVKKEIKDLEKAKDFTEELIEKVKKYKALAREAALSKIGELASEIFAEFTEGKYSEVVVRAEENKVRLFVVWEGKERPLTFLSGGERIALGLAFRLAMSLYLAGEISLLILDEPTPYFDEERRRKLITIMERYLKKIPQVILVSHDEELKDAADHVIRISLENGSSKVEVVS
modifications: Tb3+ chelate DTPA-cs124-EMPH (donor) or Bodipy FL maleimide (acceptor) on the cysteine L51C
notes: Rad50, Pyrococcus furiosus, amino acids 1-195; linker that replaces most of the coiled-coil and the Zn-hook; Rad50, Pyrococcus furiosus, amino acids 709-882; Measured within the MR^NBD complex with Mre11; also called L828F MR^NBD (LRET); source: labelled and passed over Superdex 200 Increase
- percent of molecules in the closed state [6]: 30%
- fold faster approach to equilibrium (kex) than wild type [7]: ~4 fold
- percent of molecules in the closed state [8]: 30%

B2: P. furiosus Rad50 nucleotide binding domain L51C/L828A, LRET-labelled (domain or fragment, Pyrococcus furiosus)
chain: B1 chain with F323A
modifications: Tb3+ chelate DTPA-cs124-EMPH (donor) or Bodipy FL maleimide (acceptor) on the cysteine L51C
notes: Rad50, Pyrococcus furiosus, amino acids 1-195; linker that replaces most of the coiled-coil and the Zn-hook; Rad50, Pyrococcus furiosus, amino acids 709-882; Measured within the MR^NBD complex with Mre11; also called L828A MR^NBD (LRET); source: labelled and passed over Superdex 200 Increase
- percent of molecules in the closed state [6]: 54%
- fold faster approach to equilibrium (kex) than wild type [7]: ~4 fold
- percent of molecules in the closed state [8]: 46%

B3: P. furiosus Rad50 nucleotide binding domain L51C/D829A, LRET-labelled (domain or fragment, Pyrococcus furiosus)
chain: B1 chain with F323L, D324A
modifications: Tb3+ chelate DTPA-cs124-EMPH (donor) or Bodipy FL maleimide (acceptor) on the cysteine L51C
notes: Rad50, Pyrococcus furiosus, amino acids 1-195; linker that replaces most of the coiled-coil and the Zn-hook; Rad50, Pyrococcus furiosus, amino acids 709-882; Measured within the MR^NBD complex with Mre11; also called D829A MR^NBD (LRET); source: labelled and passed over Superdex 200 Increase
- percent of molecules in the closed state [6]: 60%
- percent of molecules in the closed state [8]: 42%

B4: P. furiosus Rad50 nucleotide binding domain L51C/D829N, LRET-labelled (domain or fragment, Pyrococcus furiosus)
chain: B1 chain with F323L, D324N
modifications: Tb3+ chelate DTPA-cs124-EMPH (donor) or Bodipy FL maleimide (acceptor) on the cysteine L51C
notes: Rad50, Pyrococcus furiosus, amino acids 1-195; linker that replaces most of the coiled-coil and the Zn-hook; Rad50, Pyrococcus furiosus, amino acids 709-882; Measured within the MR^NBD complex with Mre11; also called D829N MR^NBD (LRET); source: labelled and passed over Superdex 200 Increase
- percent of molecules in the closed state [6]: 33%
- fold faster approach to equilibrium (kex) than wild type [7]: ~8 fold
- percent of molecules in the closed state [8]: 33%
